{"source": "patent US20060134087A1", "about": "“ITI-D1 Kunitz domain mutants as hNE inhibitors” (Dyax Corp., priority 1988, published 2006)", "key": {"[1]": {"target": "T1, hNE (Homo sapiens, UniProt P08246)", "T1 sequence (P08246 30-267)": "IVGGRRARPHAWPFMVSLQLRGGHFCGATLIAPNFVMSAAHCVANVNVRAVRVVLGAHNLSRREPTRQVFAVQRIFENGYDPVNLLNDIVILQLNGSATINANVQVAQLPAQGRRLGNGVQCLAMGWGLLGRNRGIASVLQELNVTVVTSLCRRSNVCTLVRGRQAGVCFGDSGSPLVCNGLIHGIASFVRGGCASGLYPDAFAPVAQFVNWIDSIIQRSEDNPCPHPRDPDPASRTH", "experiment": "Temperature stability, residual inhibitory activity for hNE", "assay_type": "physicochemical", "conditions": "for Residual hNE Inhibitory Activity: 18 hours, pH 7.0, 1 μM protein", "protocol": "The stability of EPI-HNE proteins to temperatures in the range 0° C. to 95° C. was assessed by incubating the inhibitors for thirty minutes at various temperatures and determining residual inhibitory activity for hNE. In these experiments, protein concentrations were 1 μM in phosphate buffer at pH=7. As is shown in Table 40, the four inhibitors are quite temperature stable.\nProteins were incubated at the stated temperature for 18 hours in buffer at pH 7.0. In all cases protein concentrations were 1 μM. At the end of the incubation period, aliquots of the reactions were diluted and residual hNE-inhibition activity determined."}, "[2]": {"target": "T1, hNE", "experiment": "Storage stability of purified inhibitor stock solutions", "assay_type": "physicochemical", "conditions": "stock solution 2 mM, 4° C. and −70° C., more than 11 months", "protocol": "Residual ammonium sulfate was removed from the EPI-HNE-2 preparation by ion exchange chromatography. The solution from the ammonium sulfate precipitation step was applied to a strong cation-exchange column (50 ml bed volume Macroprep 50S) (Bio-Rad Laboratories, Inc, Hercules, Calif.) previously equilibrated with 10 mM NaCitrate, pH=3.5. After loading, the column was washed with 300 ml of 10 mM NaCitrate, pH=3.5. EPI-HNE-2 was then batch-eluted from the column with 300 ml of 50 mM NH4OAc, pH=6.2. Fractions containing EPI-HNE-2 activity were pooled and the resulting solution was lyophilized. The dried protein powder was dissolved in 50 ml dH2O and the solution was passed through a 0.2μ filter (#4192, Gelman Sciences, Ann Arbor, Mich.). The concentration of the active inhibitor in the final stock solution was determined to be 2 mM (13.5 mg/ml).\nThe lyophilized protein powder was dissolved in 26 ml dH2O and the solution was passed through a 0.2μ filter (#4912, Gelman Sciences, Ann Arbor, Mich.). […] EPI-HNE-3 stored in water solution (without any buffering) deteriorated when kept at 4° C."}, "[3]": {"target": "T1, hNE", "experiment": "pH stability, residual hNE inhibitory activity", "assay_type": "physicochemical", "conditions": "37° C., 18 hours; for Percent Residual hNE Inhibitory Activity: 1 μM protein", "protocol": "The stability of the proteins to exposure to pH conditions in the range of pH 1 to pH 10 was assessed by maintaining the inhibitors in buffers of defined pH at 37° C. for 18 hours and determining the residual hNE inhibitory activity in the standard hNE-inhibition assay. Proteins were incubated at a concentration of 1 μM. The buffers shown in Table 4 were formulated as described (STOL90) and used in the pH ranges indicated: […]\nProteins were incubated at 37° C. for 18 hours in buffers of defined pH (see text). In all cases protein concentrations were 1 μM. At the end of the incubation period, aliquots of the reactions were diluted and residual hNE-inhibition activity determined."}, "[4]": {"target": "T1, hNE", "experiment": "hNE inhibition, hydrolysis of fluorogenic substrate (Ki; standard hNE-inhibition assay)", "assay_type": "biochemical", "protocol": "Inhibition constants for the proteins reacting with hNE (Ki) were determined using RT measurements of hydrolysis of a fluorogenic substrate (N-methoxysuccinyl-Ala-Ala-Pro-Val-7-amino-4-methylcoumarin, Sigma M-9771) by hNE. For these measurements, aliquots of the appropriately diluted inhibitor stocks were added to 2 ml solutions of 0.847 nM hNE in reaction buffer (50 mM Tris-Cl, pH=8.0, 150 mM NaCl, 1 mM CaCl2, 0.25% Triton-X-100) in plastic fluorescence cuvettes. The reactions were incubated at RT for 30 minutes. At the end of the incubation period, the fluorogenic substrate was added at a concentration of 25 μM and the time course for increase in fluorescence at 470 nm (excitation at 380 nm) due to enzymatic substrate cleavage was recorded using a spectrofluorimeter (Perkin-Elmer 650-15) and strip chart recorder. […] Ki is related to Kapparent by Ki=Kapparent×(1/(1+(S0/Km))). The correction is small compared to the possible errors in Kapparent. Rates of enzymatic substrate cleavage were determined from the linear slopes of the recorded increases in fluorescence. The percent residual activity of hNE in the presence of the inhibitor was calculated as the percentage of the rate of fluorescence increase observed in the presence of the inhibitor to that observed when no added inhibitor was present.\nWe recorded data used to determine Ki for EPI-HNE-2 and EPI-HNE-3 reacting with hNE. Data obtained as described above are recorded as percent residual activity plotted as a function of added inhibitor. Values for Ki and for active inhibitor concentration in the stock are obtained from a least-squares fit program."}}, "data": [{"substance": "EPI-HNE-2: EPI-HNE-1 with four additional residues EAEA at the amino terminus, SEQ ID NO 008", "values": [{"measurement": "Residual hNE Inhibitory Activity", "setting": "[1]; Temperature 0 ° C.", "result": 101}, {"measurement": "Residual hNE Inhibitory Activity", "setting": "[1]; Temperature 23 ° C.", "result": 103}, {"measurement": "Residual hNE Inhibitory Activity", "setting": "[1]; Temperature 37 ° C.", "result": 97}, {"measurement": "Residual hNE Inhibitory Activity", "setting": "[1]; Temperature 52 ° C.", "result": 101}, {"measurement": "Residual hNE Inhibitory Activity", "setting": "[1]; Temperature 65 ° C.", "result": 95}, {"measurement": "Residual hNE Inhibitory Activity", "setting": "[1]; Temperature 80 ° C.", "result": 101}, {"measurement": "Residual hNE Inhibitory Activity", "setting": "[1]; Temperature 93 ° C.", "result": 88}, {"measurement": "temperature below which full inhibitory activity is maintained", "setting": "[1]; thirty minutes, 1 μM, phosphate buffer pH=7", "result": "below 90 °C"}, {"measurement": "activity after storage", "setting": "[2]", "result": "no loss in activity"}, {"measurement": "pH stability", "setting": "[3]; pH 1 to pH 10, 1 μM", "result": "stable at all pH values tested"}, {"measurement": "Percent Residual hNE Inhibitory Activity", "setting": "[3]; Incubation pH 1.0", "result": 98, "unit": "%"}, {"measurement": "Percent Residual hNE Inhibitory Activity", "setting": "[3]; Incubation pH 2.0", "result": 97, "unit": "%"}, {"measurement": "Percent Residual hNE Inhibitory Activity", "setting": "[3]; Incubation pH 3.0", "result": 101, "unit": "%"}, {"measurement": "Percent Residual hNE Inhibitory Activity", "setting": "[3]; Incubation pH 4.0", "result": 101, "unit": "%"}, {"measurement": "Percent Residual hNE Inhibitory Activity", "setting": "[3]; Incubation pH 5.5", "result": 99, "unit": "%"}, {"measurement": "Percent Residual hNE Inhibitory Activity", "setting": "[3]; Incubation pH 7.0", "result": 103, "unit": "%"}, {"measurement": "Percent Residual hNE Inhibitory Activity", "setting": "[3]; Incubation pH 8.5", "result": 104, "unit": "%"}, {"measurement": "Percent Residual hNE Inhibitory Activity", "setting": "[3]; Incubation pH 10.0", "result": 102, "unit": "%"}, {"measurement": "Percent residual hNE activity", "setting": "[4]; 10. μl of EPI-HNE-2 solution added", "result": 82.9, "unit": "%"}, {"measurement": "Percent residual hNE activity", "setting": "[4]; 20. μl of EPI-HNE-2 solution added", "result": 71.8, "unit": "%"}, {"measurement": "Percent residual hNE activity", "setting": "[4]; 30. μl of EPI-HNE-2 solution added", "result": 59.5, "unit": "%"}, {"measurement": "Percent residual hNE activity", "setting": "[4]; 40. μl of EPI-HNE-2 solution added", "result": 46.2, "unit": "%"}, {"measurement": "Percent residual hNE activity", "setting": "[4]; 50. μl of EPI-HNE-2 solution added", "result": 39.2, "unit": "%"}, {"measurement": "Percent residual hNE activity", "setting": "[4]; 55. μl of EPI-HNE-2 solution added", "result": 32.2, "unit": "%"}, {"measurement": "Percent residual hNE activity", "setting": "[4]; 60. μl of EPI-HNE-2 solution added", "result": 22.5, "unit": "%"}, {"measurement": "Percent residual hNE activity", "setting": "[4]; 65. μl of EPI-HNE-2 solution added", "result": 23.5, "unit": "%"}, {"measurement": "Percent residual hNE activity", "setting": "[4]; 70. μl of EPI-HNE-2 solution added", "result": 15.0, "unit": "%"}, {"measurement": "Percent residual hNE activity", "setting": "[4]; 75. μl of EPI-HNE-2 solution added", "result": 10.4, "unit": "%"}, {"measurement": "Percent residual hNE activity", "setting": "[4]; 80. μl of EPI-HNE-2 solution added", "result": 8.6, "unit": "%"}, {"measurement": "Percent residual hNE activity", "setting": "[4]; 85. μl of EPI-HNE-2 solution added", "result": 4.8, "unit": "%"}, {"measurement": "Percent residual hNE activity", "setting": "[4]; 90. μl of EPI-HNE-2 solution added", "result": 1.4, "unit": "%"}, {"measurement": "Percent residual hNE activity", "setting": "[4]; 95. μl of EPI-HNE-2 solution added", "result": 2.0, "unit": "%"}, {"measurement": "Percent residual hNE activity", "setting": "[4]; 100. μl of EPI-HNE-2 solution added", "result": 2.5, "unit": "%"}, {"measurement": "Percent residual hNE activity", "setting": "[4]; 120. μl of EPI-HNE-2 solution added", "result": 0.2, "unit": "%"}, {"measurement": "Percent residual hNE activity", "setting": "[4]; 150. μl of EPI-HNE-2 solution added", "result": 0.2, "unit": "%"}, {"measurement": "Percent residual hNE activity", "setting": "[4]; 200. μl of EPI-HNE-2 solution added", "result": 0.04, "unit": "%"}]}]}
